Assay results: article doi:10.1101/2024.06.14.599074, “A higher order PUF complex is central to regulation of C. elegans germline stem cells” (bioRxiv, 2024)
Several values for one entry are separate records, joined by “and”; a condition that tells them apart may be missing. Equal entries are not always repeated.

T1: C. elegans FBF-2 RBD+CT (residues 164–632) (C. elegans, UniProt Q09312 164-632)
T1 sequence (looked up): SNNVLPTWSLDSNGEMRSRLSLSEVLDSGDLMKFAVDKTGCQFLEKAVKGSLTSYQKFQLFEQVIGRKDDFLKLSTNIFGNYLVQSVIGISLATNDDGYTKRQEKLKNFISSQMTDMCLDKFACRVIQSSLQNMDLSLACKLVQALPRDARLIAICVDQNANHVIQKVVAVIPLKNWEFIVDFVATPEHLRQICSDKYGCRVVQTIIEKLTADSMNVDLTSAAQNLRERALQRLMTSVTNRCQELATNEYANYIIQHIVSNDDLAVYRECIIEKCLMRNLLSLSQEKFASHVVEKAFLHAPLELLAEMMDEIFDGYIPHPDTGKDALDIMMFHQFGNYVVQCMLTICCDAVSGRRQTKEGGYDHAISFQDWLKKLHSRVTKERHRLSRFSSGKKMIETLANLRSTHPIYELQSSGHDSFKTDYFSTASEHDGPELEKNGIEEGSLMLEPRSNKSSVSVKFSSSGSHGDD

T2: FBF-2 RBD protein (residue 164–575) (C. elegans, UniProt Q09312 164-575)
T2 construct: Tag cleaved with TEV protease (construct derived from an earlier pGEX6p FBF-2 RBD construct); source: E. coli, purified (as FBF-2 RBD+CT); for SEC-MALS and cryo-EM coexpressed with GST-fused LST-1^19-98 and purified as a complex
T2 sequence (looked up): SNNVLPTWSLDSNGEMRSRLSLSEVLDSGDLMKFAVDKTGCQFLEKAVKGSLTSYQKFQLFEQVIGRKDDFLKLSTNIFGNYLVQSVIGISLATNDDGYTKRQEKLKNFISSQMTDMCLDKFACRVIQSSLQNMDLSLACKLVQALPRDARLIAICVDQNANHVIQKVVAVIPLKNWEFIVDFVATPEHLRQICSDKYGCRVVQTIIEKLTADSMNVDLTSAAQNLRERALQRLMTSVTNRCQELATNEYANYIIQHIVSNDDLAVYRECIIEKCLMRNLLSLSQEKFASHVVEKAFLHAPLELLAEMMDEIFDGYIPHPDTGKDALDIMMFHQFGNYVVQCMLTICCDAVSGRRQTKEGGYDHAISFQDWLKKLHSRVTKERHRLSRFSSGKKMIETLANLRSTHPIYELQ

B1: LST-1^19-98 (LST-1 residues 19–98, spanning PIM-A and PIM-B) (domain or fragment, C. elegans, UniProt P91820 19-98, looked up)
chain: STIAYSKSQHEAPKQLLQLRSEIKPLIPLNQPSNFWESSQDSGVLSSLSSSPQQRSGLRSQKLHLTYIEKNKRVRAMIPQ
notes: LST-1, C. elegans, residues 19–98 of the N-terminal intrinsically disordered region, with PIM-A and PIM-B; Codon-optimized synthetic cDNA in the pSMT3 vector; tag removed with Ulp1; also called LST-1 peptide (residues 19–98); source: E. coli BL21-CodonPlus (DE3)-RIL, purified (Ni-NTA, heparin, Ni-NTA pass, Superdex 75)
B2: LST-1^19-98 from the GST fusion coexpressed with FBF-2 (domain or fragment, C. elegans, UniProt P91820 19-98, looked up)
chain: STIAYSKSQHEAPKQLLQLRSEIKPLIPLNQPSNFWESSQDSGVLSSLSSSPQQRSGLRSQKLHLTYIEKNKRVRAMIPQ
notes: LST-1, C. elegans, residues 19–98; GST cleaved off with TEV protease; also called GST-LST-1^19-98
B3: LST-1^19-98(A^m) (domain or fragment, C. elegans, UniProt P91820 19-98, looked up)
chain: STIAYSKSQHEAPAQLAQLRSEIKPLIPLNQPSNFWESSQDSGVLSSLSSSPQQRSGLRSQKLHLTYIEKNKRVRAMIPQ
notes: LST-1, C. elegans, residues 19–98, PIM-A mutated, PIM-B intact; also called LST-1 A^m; K32A/L35A double mutant in PIM-A; source: E. coli, purified (same protocol as for WT protein)
B4: LST-1^19-98(B^m) (domain or fragment, C. elegans, UniProt P91820 19-98, looked up)
chain: STIAYSKSQHEAPKQLLQLRSEIKPLIPLNQPSNFWESSQDSGVLSSLSSSPQQRSGLRSQALHATAIEKNKRVRAMIPQ
notes: LST-1, C. elegans, residues 19–98, PIM-B mutated, PIM-A intact; also called LST-1 B^m; K80A/L83A/Y85A triple mutant in PIM-B; source: E. coli, purified (same protocol as for WT protein)
B5: C26-labeled LST-1^19-98 (S26C, Cy5) (domain or fragment, C. elegans, UniProt P91820 19-98, looked up)
chain: STIAYSKCQHEAPKQLLQLRSEIKPLIPLNQPSNFWESSQDSGVLSSLSSSPQQRSGLRSQKLHLTYIEKNKRVRAMIPQ
modifications: Cy5 on C26 via cysteine-maleimide conjugation
notes: LST-1, C. elegans, residues 19–98, cysteine in place of S26, five residues upstream of PIM-A; Probably made like wild-type LST-1^19-98 (His6-SUMO, cleaved); source: purified
B6: C74-labeled LST-1^19-98 (S74C, Cy5) (domain or fragment, C. elegans, UniProt P91820 19-98, looked up)
chain: STIAYSKSQHEAPKQLLQLRSEIKPLIPLNQPSNFWESSQDSGVLSSLSSSPQQRCGLRSQKLHLTYIEKNKRVRAMIPQ
modifications: Cy5 on C74 via cysteine-maleimide conjugation
notes: LST-1, C. elegans, residues 19–98, cysteine in place of S74, five residues upstream of PIM-B; Probably made like wild-type LST-1^19-98 (His6-SUMO, cleaved); source: purified

Columns and labels:
[1] = biological target: T1, C. elegans FBF-2 RBD+CT (residues …); assay: cell-based or functional assay
[2] = biological target: T2, FBF-2 RBD protein (residue 164–575); assay: ITC; LST-1 (100–400 μM) titrated from the syringe into the cell containing FBF-2 (10–30 μM); 20 °C; 20 mM HEPES pH 7.4, 150 mM NaCl, 0.5 mM TCEP; no RNA; one-site model; two technical replicates; details: both partners purified
[3] = biological target: T1, C. elegans FBF-2 RBD+CT (residues …); assay: as above; details: both partners purified
[4] = biological target: T2, FBF-2 RBD protein (residue 164–575); assay: SEC-MALS; purified FBF-2 RBD+CT or RBD/LST-1^19-98 protein (~30 μM) with 29-nt gld-1 FBEa-FBEa* RNA; Superdex-200 10/300 GL; 20 mM HEPES pH 7.4, 150 mM NaCl, 2 mM DTT; details: both partners purified
[5] = biological target: T1, C. elegans FBF-2 RBD+CT (residues …); assay: as above; details: both partners purified
[6] = biological target: T2, FBF-2 RBD protein (residue 164–575); assay: FRET or BRET; 2 μM unlabeled FBF-2 RBD pre-incubated with Cy5-labeled LST-1^19-98 (20, 40, 80 nM), then 20 nM 5′-Cy3-labeled gld-1 FBEa-FBEa* RNA; room temperature; FRET from Cy3 in the RNA to Cy5 in LST-1; details: both partners purified

Binder | EMSA: RNA-binding affinity of FBF-2 RBD+CT for gld-1 FBEa-FBEa* RNA with 10 μM LST-1^19-98 against without LST-1 [1] | Kd [2] | dH [2] | stoichiometry N [2] | Kd [3] | dH [3] | stoichiometry N [3] | stoichiometry N [4] | stoichiometry N [5] | binding result [6]
B1 | 4 fold | 480 nM and 520 nM | -33.2 kcal/mol and -37.5 kcal/mol | 0.46 sites | 1100 nM and 1900 nM | -14.8 kcal/mol and -10.8 kcal/mol | 0.5 sites and 0.57 sites | – | – | –
B2 | – | – | – | – | – | – | – | 2 FBF-2 per LST-1 | 2 FBF-2 per LST-1 | –
B3 | – | 130 nM and 120 nM | -15.3 kcal/mol and -16.5 kcal/mol | 1.15 sites and 1.05 sites | 3700 nM and 2800 nM | -11.4 kcal/mol and -11.5 kcal/mol | 1.02 sites and 0.98 sites | – | – | –
B4 | – | 1460 nM and 1540 nM | -12.1 kcal/mol and -12.5 kcal/mol | 0.83 sites and 0.86 sites | 24100 nM and 46200 nM | -11.1 kcal/mol and -11.5 kcal/mol | 1.06 sites and 0.89 sites | – | – | –
B5 | – | – | – | – | – | – | – | – | – | binds
B6 | – | – | – | – | – | – | – | – | – | binds
